For experiment [1], the target named is T1, human BCMA-His protein (human, UniProt Q02223 1-54).
T1 construct: Bought protein; also called human BCMA protein; huBCMA-His; not shown: His tag
T1 sequence (looked up): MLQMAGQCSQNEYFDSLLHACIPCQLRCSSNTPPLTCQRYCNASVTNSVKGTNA
In words: SPR (Biacore), antibody captured on Protein A chip, BCMA-His in solution. As to the method:
(§1) The flow cell was set to 25° C. The sample block was set to 16° C. Both were pretreated with the running buffer. In each cycle, an antibody to be detected was first captured with a Protein A chip, and then a single concentration of BCMA antigen protein was injected. The binding and dissociation processes of the antibody and the antigen protein were recorded, and finally Glycine pH 1.5 (GE Healthcare; BR-1003-54) was used to complete chip regeneration. Binding was measured by injecting different concentrations of BCMA-His in solution for 240 s with a flow rate of 30 μL/min. The concentration started from 200 nM (see the detailed results for the actual concentration in the test) and was diluted at 1:1, making a total of 5 concentrations. The dissociation phase was monitored for up to 600 s and was triggered by switching from sample solution to running buffer. The surface was regenerated by washing with a 10 mM glycine solution (pH 1.5) for 30 s at a flow rate of 30 μL/min. Bulk refractive index difference was corrected by subtracting the response obtained from the goat anti-human Fc surface. Blank injection was also subtracted (=double reference). For calculation of apparent KD and other kinetic parameters, Langmuir 1:1 model was used. The binding rate (Kₐ), dissociation rate (Kdis) and binding affinity (KD) of the recombinant candidate antibody to human BCMA protein are shown in the table, wherein REGN5459-hlgG1 antibody was used as a control.
The specific operating method referred to Example 5. The binding rate (Ka), dissociation rate (Kdis) and binding affinity (KD) of the humanized candidate nanobodies to human BCMA protein are shown Table 18, wherein REGN5459-hlgG1 antibody was used as a control.
(SPR reads the build-up and loss of mass on a sensor chip optically.)

Experiment [2] deals with T2, human BCMA on cells (human, UniProt Q02223 1-184).
T2 construct: whole, on cells; also called H929 cells; U266 cells
T2 sequence (looked up): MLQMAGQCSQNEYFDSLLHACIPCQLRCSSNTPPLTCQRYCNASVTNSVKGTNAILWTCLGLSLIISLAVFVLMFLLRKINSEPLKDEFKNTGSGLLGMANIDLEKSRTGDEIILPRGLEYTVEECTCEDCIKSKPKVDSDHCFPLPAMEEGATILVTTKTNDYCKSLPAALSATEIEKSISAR
In words: FACS, U266 cells. As to the method:
(§2) H929 cells and U266 cells were scale-up cultured in T-75 cell culture flasks to the logarithmic growth phase, and the cells were pipetted into a single cell suspension. After the cells were counted, the cells were centrifuged and the cell pellet was resuspended in FACS buffer (PBS+2% fetal calf serum) to 2×10⁶ cells per ml, and the suspension was added to the 96-well FACS reaction plate at 50 μl per well, REGN5459-hlgG1 and HPN217-hHcAb antibodies were used as primary antibodies, and APC-labeled goat anti-human IgG (H+L) secondary antibodies (purchased from Jackson, catalog number: 109-605-088) were detected and analyzed by FACS (FACS Canto™, purchased from BD Corporation). The results are shown in Table 4 and FIGS. 2A and 2B, and indicate that both H929 cells and U266 cells can bind to REGN5459-hlgG1 and HPN217-hHcAb antibodies.

Experiment [3] addresses T3, monkey BCMA-His protein (monkey, UniProt A0A2K5UD97 1-53).
T3 construct: Bought protein; also called monkey BCMA protein; CynoBCMA-his
In words: ELISA, plate coated with monkey BCMA-His 1 ug/mL, antibody titrated from 100 nM, HRP secondary antibody, OD450. The protocol: The binding activity of the control antibody to human BCMA-His protein (purchased from Acro, catalog number: BCA-H522y) and monkey BCMA-His protein (purchased from Acro, catalog number: BCA-C52H7) was detected by ELISA. The specific method was as follows: The antigen protein was diluted with PBS to a final concentration of 1 μg/mL, and then added to a 96-well ELISA plate at 50 μl per well. The plate was sealed with a plastic film and incubated overnight at 4° C., the plate was washed twice with PBS the next day, and then a blocking solution [PBS+2% (w/v) BSA] was added for blocking at room temperature for 2 h. The blocking solution was poured off and 50 μl of 100 nM serially diluted control antibody or negative control antibody was added to each well. After incubation at 37° C. for 2 h, the plate was washed 3 times with PBS. HRP (horseradish peroxidase)-labeled secondary antibody (purchased from Merck, catalog number: AP113P) was added, and incubated at 37° C. for 1 h, and the plate was washed 5 times with PBS. TMB substrate was added at 50 μl/well, and incubated at room temperature for 10 min, then a stop solution (1.0 M HCl) was added at 50 al/well. The OD450 nm values were read by an ELISA microplate reader (Multimode Plate Reader, EnSight, purchased from Perkin Elmer). The results are shown in Tables 2 and 3 and FIGS. 1A and 1B. […]

Experiment [4] deals with T1, human BCMA-His protein. In words: ligand competition ELISA: plate coated with human BCMA protein 1 ug/mL, antibody titrated, blocked ligand hAPRIL-biotin 0.5 ug/mL, OD450. The protocol: The antigen protein was diluted with PBS to a final concentration of 1 μg/mL, and then added to a 96-well ELISA plate at 50 μl per well. The plate was sealed with a plastic film and incubated overnight at 4° C., the plate was washed twice with PBS the next day, and then a blocking solution [PBS+2% (w/v) BSA] was added for blocking at room temperature for 2 h. The blocking solution was discarded, the plate was washed 3 times with PBS, and 200 nM BCMA recombinant chimeric nanobody diluted gradiently or negative control antibody was added at 50 μl/well. hAPRIL-biotin (purchased from Acro, catalog number: APL-H82F5) was diluted to 0.5 μg/mL, with 50 μl per well. After incubation at 37° C. for 1.5 h, the plate was washed 3 times with PBS. HRP (horseradish peroxidase)-labeled secondary antibody (purchased from Sigma, catalog number: S2438-250 μg) was added, and incubated at 37° C. for 1 h, and the plate was washed 5 times with PBS. TMB substrate was added at 50 μl/well, and incubated at room temperature for 10 min, then a stop solution (1.0 M HCl) was added at 50 al/well. The OD450 nm values were read by an ELISA microplate reader (Multimode Plate Reader, EnSight, purchased from Perkin Elmer). BCMA-Lab05, BCMA-Lab06 and BCMA-Lab08 had average blocking effects, while the other antibodies had good blocking effects.
In general terms: ELISA stands for enzyme-linked immunosorbent assay.

Experiment [5] concerns the target T2, human BCMA on cells. In words: FACS, H929 cells. The protocol:
as §2
In general terms: A flow cytometer gives signals particle by particle.

In experiment [6] the target is T1, human BCMA-His protein. In words: ligand competition ELISA: plate coated with human BCMA protein 1 ug/mL, antibody titrated, blocked ligand hAPRIL-biotin 0.5 ug/mL, OD450. The source holds these as a separate data set.
For experiment [7], the target named is T2, human BCMA on cells. In words: FACS, H929 cells. The protocol:
(§3) The desired cells were scale-up cultured in T-75 cell culture flasks to the logarithmic growth phase, and the cells were pipetted into a single cell suspension. After the cells were counted, the cells were centrifuged and the cell pellet was resuspended in FACS buffer (PBS+2% fetal calf serum) to 2×10⁶ cells per ml, and the suspension was added to the 96-well FACS reaction plate at 50 μl per well, then the sample to be tested of the candidate antibody was added at 50 μl per well and the mixture was incubated at 4° C. for 1 h. The obtained mixture was centrifuged and washed 3 times with a PBS buffer. Secondary antibody anti-hlgG(Fc) Alexa 647 (purchased from Jackson, catalog number: 109-605-098) was added at 50 μl/well, and incubated on ice for 1 h. The obtained mixture was centrifuged and washed 3 times with a PBS buffer. 100 μl of the mixture was taken for detection and result analysis by FACS (FACS Canto™, purchased from BD Company). Data analysis was performed by software (FlowJo) to obtain the mean fluorescence intensity (MFI) of the cells. Then, a software (GraphPad Prism8) was used for analysis, data fitting and EC50 calculation. BCMA-Lab05, BCMA-Lab06, and BCMA-Lab08 had poor binding to H929 and U266 cells, while the other antibodies performed better.
(§4) The specific method was the same as in Example 4(B).
The source holds these as a separate data set.

Experiment [8] deals with T1, human BCMA-His protein. Put plainly: ELISA, plate coated with human BCMA-His 1 ug/mL, antibody titrated from 100 nM, HRP secondary antibody, OD450. As to the method:
(§5) The specific method was as follows: Human BCMA protein (purchased from Acro, catalog number: BCA-H522y) and monkey BCMA protein (purchased from Acro, catalog number: BCA-C52H7) were diluted with PBS to a final concentration of 1 μg/mL, respectively, and then added to a 96-well ELISA plate at 50 al/well. The plate was sealed with a plastic film and incubated overnight at 4° C., the plate was washed twice with PBS the next day, and then a blocking solution [PBS+2% (w/v) BSA] was added for blocking at room temperature for 2 h. The blocking solution was discarded, the plate was washed 3 times with PBS, and 100 nM BCMA recombinant chimeric nanobody diluted gradiently or negative control antibody was added at 50 μl/well. After incubation at 37° C. for 2 h, the plate was washed 3 times with PBS. HRP (horseradish peroxidase)-labeled secondary antibody (purchased from Merck, catalog number: AP113P) was added, and incubated at 37° C. for 1 h, and the plate was washed 5 times with PBS. TMB substrate was added at 50 μl/well, and incubated at room temperature for 10 min, then a stop solution (1.0 M HCl) was added at 50 μl/well. The OD450 nm values were read by an ELISA microplate reader (Multimode Plate Reader, EnSight, purchased from Perkin Elmer). All antibodies bound to human BCMA protein. BCMA-Lab06 and BCMA-Lab07 had no cross-binding activity with monkey BCMA protein. […]

In experiment [9] the target is T2, human BCMA on cells. Put plainly: FACS, H929 cells. The protocol:
as §3
The source holds these as a separate data set.

Experiment [10] addresses T3, monkey BCMA-His protein. Put plainly: ELISA, plate coated with monkey BCMA-His 1 ug/mL, antibody titrated from 100 nM, HRP secondary antibody, OD450. The protocol:
as §5
The source holds these as a separate data set.

Experiment [11] concerns the target T2, human BCMA on cells. Put plainly: FACS, U266 cells. The protocol:
as §3, §4
This is another data set of the same source.

Experiment [12] concerns the target T2, human BCMA on cells. Put plainly: FACS, U266 cells. As to the method: as §3
The source holds these as a separate data set.

Experiment [13] addresses T1, human BCMA-His protein. In words: SPR (Biacore), antibody captured on Protein A chip, BCMA-His in solution. The protocol:
as §1
This is another data set of the same source.

Experiment [14] has as its target T1, human BCMA-His protein. Described as above. As to the method: as §1
According to the method in Example 5, Biacore was used to detect the affinity of the recombinant antibodies to human BCMA protein.
This is another data set of the same source.

Values joined by “and” are separate entries in the source; they are usually repeats but may differ in a detail not shown here. Equal values may be shown once. Read-outs that look alike come from different tables or passages of the source.

T3 sequence (A0A2K5UD97 entry or part of it limits assumed): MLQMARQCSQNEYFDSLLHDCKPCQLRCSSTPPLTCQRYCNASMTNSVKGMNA

B1: REGN5459-hIgG1 (antibody, V domains shown)
VH: EVQLVESGGGLVQPGGSLRLSCAASGFTFSNFWMTWVRQAPGKGLEWVANMNQDGSEKYYVDSVKGRFTISRDNAKSSLYLQMNSLRAEDTAVYYCARDREYCISTSCYDDFDYWGQGTLVTVSS
VL: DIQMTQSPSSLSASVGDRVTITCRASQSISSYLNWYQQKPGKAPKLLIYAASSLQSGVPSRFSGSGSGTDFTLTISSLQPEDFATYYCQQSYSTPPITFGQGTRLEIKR
notes: Control antibody; also called REGN5459-hlgG1; BCMA antibody
By Kd is commonly meant the concentration at which binding is half-saturated. The term koff denotes the rate constant with which the complex falls apart. As usually defined, the kon is the second-order rate constant of association. Broadly, the EC50 is the concentration giving half of the maximal effect. As a reminder, the EC50 (read off the curve) is the concentration at which the effect is half-maximal. For the molecule B1, the figures for the Kd in experiment [1], in [13] and in experiment [14] were 0.208 nM, 0.233 nM and 0.267 nM, respectively. The koff in [1] was determined as 0.000162 s⁻¹; in experiment [13] it was 0.000178 s⁻¹; in experiment [14], 0.000197 s⁻¹. The kon in [1] came out at 781000 M⁻¹ s⁻¹; in experiment [13], 766000 M⁻¹ s⁻¹; in experiment [14] it was 739000 M⁻¹ s⁻¹. The EC50 in experiment [2] is 9.12 nM; in experiment [5], 6.78 nM; in experiment [7], 9.39 nM and 13.2 nM; in [9], 5.24 nM and 9.39 nM and 6.46 nM; in [11], 16.6 nM and 32.2 nM; in experiment [12], 7.14 nM and 16.6 nM and 9.49 nM. Moreover, the “EC50 (read off the curve)” value in experiment [3], in experiment [8] and in experiment [10] was around 0.1 nM throughout. The “IC50 (read off the curve)” value in experiment [4] was ~6 nM and ~5 nM; in experiment [6], around 5 nM.

The record behind these values is patent US20250026844A1 (SHANDONG SIMCERE BIOPHARMACEUTICAL, published 2025).
